Reference: the nanobody polyreactivity screen of Harvey et al. (2022)

Assay: yeast display, Sf9 membrane polyspecificity reagent, FACS + sequencing; frameworks hold sequencing errors
Method in brief: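 A nanobody's polyreactivity label depends on the gate it was sorted from. Yeast display cells were stained with 10% biotinylated, detergent-solubilized Sf9 membrane reagent for 1 hour at 4 °C, enriched on streptavidin microbeads and sorted by FACS. The low and high (top ~1%) gates were set on anti-HA fluorescence for expression and streptavidin fluorescence for reagent binding.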

Sequence | polyreactivity (PSR sort gate)
QDQLVESGGGLVQAGGSLSLSCAASGRTLWRNTMGWYRQAPGKERELVAAITTRGGSTYYADSVKGRFTISRDTAKNTVYLQLNSLKPEDTAVYYCAARTYTGEGSGRFYYWGQGTQVTVSS | high polyreactivity
QDQLVESGGGLVQAGGSLSLSCAASGSTYDRNAMGWYIQAPGKEREMVAGISFSGGTTYYADSVKGRFTISRDNAKNTVYLQMNRLKPEDTEVYDCAASTYQPGAVPFDYWGQGSQVTVSS | low polyreactivity
QDQLVESGGGLVQAGGSLSLSCAASRFIYLTYAMGWSRQAPGKERELVAAISSRGGSTYYADSVKGRFTISRDNAKNTVYLQMNSLKPEDTAVYYCAYTRGKYDYWGQGTQVTVSS | high polyreactivity
QDQLVESGGGLVQAGVSLRLRSAASGFISQENAMGWYRQAPGKDRELVATISGSVGITYYADSVKGRFTISRDNAKNTVYLQMNSLKPEDTAVYYCNKEISYLSWGYDYWGLGTQVTVSS | low polyreactivity
QDQLVESGGGLVQARGTLRLSCAASGRTFYQNAMGWYRHAPGKEREFVGAITGGTGSTHYADSVKGRFTISRDNAKNTVFLQMNSLKPEDTAVYYCATRYLLGFSRYDYCGQGTQVTVSS | low polyreactivity
QDQLVESGGGLVQEGGSLRLSCAASGRIFVGYAMGWSRQAPGKERELVAAISSSGGRTYYADSVKGRFTISRDNAKNTVYFQMNSLQPEDTAVYYCAAGRFIWGTWALDYWGQGTQVTVSS | high polyreactivity
QDQLVESGGGLVQPGGSLRLSCAASGTIIPRSAMGWYRQATGKERELVAAISQRGGSTFYADSVKWRFTISRDNAKNTVYLQMNRLKPEVTAVYYCAADPGVQRGHIDRMYYWGQGTQVTVSS | high polyreactivity
QDQLVESGGGLVQTGGSLRLSWAASGSTFYNTVMGWYRQAPGKERELVAAINSGGRTYYADSVKGRFTISRDNAKNTVYLQMNSLNPEDTAVYYCAVGYGRAARMDYWGQGTQVTVSS | high polyreactivity
QDQLVESGGGLVRAGGSLRLSCAASGSIFVVNAMGLYRQAPGKERELVADINSGGSTNFADSVKGRFTISRDNAKNTVYLQMNSLKPEDTAVYYCAKSAVTGTYDYWGQGTLVTVSS | low polyreactivity
QDQLVESGGVLFQAGGSLRLTCAAYGRILYHYDMGWYRQAPGKERELVAAITRGAGTNYADSVKGRFTISRDNAKNTVYVQMNSLKPEDTAVYYCNADRFIVTRSRRGDYWGQGTQVTVSS | low polyreactivity
QDQLVESGGWLVQAGGTLRLSCAASGRILWFYAMGWYRQAPGKERELVASISGSGGSTFYADSVKGRFTISRDNAKNTVYLQMNRLKPEDTAVYYCAAYKEPYYEEYGYWGQGTQVTVSS | low polyreactivity
QDQLVESGVGIVQAGGSLRLSCAASGSTFGIYAKGWYRQAPGKETELDAAISSGASTNYADSVKGRFTISRDNEKNTVYLQMNSLKQEDTAVYYCAVESVYEYGGYVDSAYDYWGQGTQVTVSS | low polyreactivity
QDQLVESGVGLVQAGGILRLSCAASVSTFNRYAMVWYRQAPGKERELVAAISSSGGYTYYADSVKGRFTNSRDNAKNTVYFQMNSLKAEDTAVYYCNAAYRVRRFDYWGQGTQVTVSS | low polyreactivity
QDQLVESGVGLVQAGGSLRLSCAASGRIFGRYSMGWYRQAPGKEMEFVAAISKRGGGTYYADSVKGRFTISRDNAKNTVYLQMNSLKPEDSAVYYCAVDNSPGFDDYDYWGQGTQVTVSS | high polyreactivity
QDQLVESGVGLVQPGGSLRLSCAASGITFRKYAMGWYRQAPGKERELVAAIRWSGTRTYYADSVKGRFTISRDNAKNTDYLQMNRLKPEDTAVYYCATVYGATPGRSGLDYWGQGTQVTVSS | high polyreactivity
QDQLVESRGGIVQAVRSLRLSCAASGSIFIDNAMGWYRQAPGKESEFVAAISKSATSTYYADSVKGRFTISRDNAYNTVYLEMKSLIPEDTAVYYCAVRRPRPYSNYYYWGQGTQVNVSS | high polyreactivity
QDQLVESRGGLVQAGGSLRLSCAASGFTFYYYAMGWYRQAPGKERELVAAISSGGSTYYADSVKGRFTISRDNAKNTVYLQMNSLKPEDTAVYYCARLYRVGRYLFDVDSWGQGTQVTVSS | high polyreactivity
QDQLVESRGGLVQAGGSLRLSCAASGSISVKYAMGWYRQAPGKERELVAAISSDGNTYYADSVKGRFTISRDNAKYNVYLQMNSLKPEDTAVYYCAPAKVSWFGLKYYYWGQGTQVTVSS | high polyreactivity
QDQLVESRGGLVQAGGSLRLSCAASGSTFGKNTMGWYRQAPGKERELVAAISRGVSTYYADSVKGRFTISRDNAKNTVYLQMNSLKPEDTAVYYCAAQEAYRWYGFDYWGQGTQVTVSS | high polyreactivity
QDQLVESRGGLVQAGGSLRLSCAASGSTLSGNAMGWYRQAPGKERELVAAITSSGGRTYYADSVKGRFTISRDNAKNTVYLQMNSLKPEDTAVYYCAKDRYGWGQGTQVTVSS | high polyreactivity
QDQLVESRGVIVQAGGSLRLSCAASGRIFSVNAMGWYRQAPGKERELVAAITGSGTITYYADSVKGRFTISRDNAKNIVYLQMNSLKQEDTAVYYCAARPVLRYYAGYYYWGQGTQVTVSS | high polyreactivity
QDQLVESRGVLVQAGGSLRLSCAAYGRIISPYAMGWYRQAPGKERELVAAISRRGTRTNYADSVKGRFTLSRDKAKNTVYLQMNSLKPVDTAVYYCNKTPLLRWGQGTQVSVSS | high polyreactivity

Sequence | polyreactivity (PSR sort gate)
QDQLVESVGGLVQAGGSLRLSCAASGITFYYSAMGWDRQAPGKERELVAAISFRGGSTYYADSVKGRFTSSRDNAKNTVYLQMNSLKPEDTAVYYCAAETSPSWYTWVTYDYWGQGTQVTVSS | high polyreactivity
QDQLVESVGGLVQAGGSLRLSCAASGSIFRLYAMGWYRHAPGKERELVAGITSSDGSTYADSVKGRFTISRDNAKNTVYLQMNSLKPEDTAVYYCAARGYVRWYNRYDYWGQGTQVTVSS | low polyreactivity
QDQLVESVGGLVQAGGSLRLSCAPTGSTFYGYGLAWSRQSPGKARELVAAITGSGDTTYYADSVKGRFTISRDYANNTVYLQMNSLKPEDTAVYYCNARWHAEYDYWGQGTQVTVSS | low polyreactivity
QDQLVESVGGLVQAGVSLRLSCAASGGTFDVNAMGWYRQATGKERELVATISGGGSTNYADSVKGRFTISRDNAKNTVYLQMNSLKPEETAVYYCAAESEPIRNRERDYWGQGTQVTVSS | low polyreactivity
QDQLVESVGSLVQAGGSHRLSCSASGFIIANNPMGWYRQAPGKERELVATITGGGSTDYADTVKRRFTISRDNAKNTVYLQMNSLKPEDTAVYYCAAEYKYWAFASPSLTTNDSWGQGTQVTVSS | low polyreactivity
QDQLVESWGCLVQAGGSLRLSCAASRRIFGGHTMGWYRQAPGKERELVAAITSGRSTTYADSVKGRFTISRDNAKNSVYFLMNSLKPEDTAVDYCAARYVYPNQWTPYIRPYDYWGQGTQVTVSS | low polyreactivity
QDQLVESWVGLVQAGGSLRLSCAASGTISSYAMGWSRQAPGKERELVASIRYRGGSTYYADSVKGRFTISRDNEKNTVYLQINSLKPEDTAVYYCNAVRVPYVRGAKFEYWGQGTQVTVSS | low polyreactivity
QDQLVETGGGLVQAGCSLRLSCAASGRIFVPYAMGWYRQSHGKERELVAAISGSDGSTYYADSVKGRFTISRDNAKNTVYLQMNRLKPEDTAVYYCARLLIYAPPSGSHRYYPFDYWGQGTQETVSS | low polyreactivity
QDQPVDSGRCLVQAGGSLRLSCAASGSTFEVYTMGWYRQAPGQERELVAAITKNGGTTYYADSVKGRFTISRDNAKNTVYLLMNSLKPEDTAVYYCAATWPRYGYGYWGQGTQVTVSS | low polyreactivity
QDQRVESGGGLVQAGGSLRLSCAASGSIRGYAMGWYRQAPGKERELVASITWSGGSTYYADSVKGRFTISRDNSKNTVYLQMNSLKPEDPAVFYCAARPSPYASFFRPYDYWGQGTQVTVSS | low polyreactivity
QDQVVESGGGLVQAGGSLRLSCAASGRIFFAYAMGLYRQAAGTERELVAAITSSGNTYYADSVKGRFTISRDNAKNTVFLQINSLKPEDTAVYYCATGYWELRYDYWGQGTQLTVSS | low polyreactivity
QDQVVESGGGLVQAGGSLRLSCAASGRTFAIYAMGWYRQAPGKEREFVAAITWRSGSTYYADSVKGRFTISRDNAKNTVYLQMMSVKPEDTAVYFCAAYPYSYLQLMDYWGQGTQVTVSS | high polyreactivity
QEQLQERAAWCRRAGSLRLSCAASGNISDYYFMGWYRQAPGKERELVAAIAPGSNTYYADSVKGRFTISRDNAKNTVYLQMNSLKPEDTAVCFCAANSTQYTWFDYWGQGTQVPVSS | low polyreactivity
QEQLQESGGGLVQACGSLRLSCAASGYIFSHQYMGWYRQAPGKERELVASISPRATTNYADSVKGRFTISRDNAKNTVYLQMNSLKPEDTAVYYYAVYQILDRRLSYWGQGTQVTVSC | high polyreactivity
QEQLQESGGGLVQAGDSPRLSCAESGYITARTGMGSYRQAPGKEREFVAGIASGTRTHYADSVKGRFTISRDNAKNAVYLQMTSLKPEDTAVYYCAATFGFFYYQYDYWGQGTQVTVSS | low polyreactivity
QEQLQESGGGLVQAGGSLRLSCAASGNISTHQLYMGSYRQAPGKEREFVAAINFGASTYYADSVKGRNTISRDNAKYTVYLQMNSLKPEDTAVYYCNADWYYYYEVDDYWGQGTQVTVSS | low polyreactivity
QEQLQESGGGLVQAGGSLRLSCAASGSIYDDTYMARYRQAPGKERELVATIDSGSTTNYADSVKGRITISRDNAKNTVYLQMNSLKPEDSAVYYCAAADSHIDYFDYWGQGTQVTVSS | low polyreactivity
QEQLQESGGGLVQAGGSLRLSCAASGYISSWYPMGWYRQAPGKEREFVATIAPGATTYYADSVKGRFTISRDYAKNTVYLQMNSLTPEDTAVYYCAAGPENNDFYSYWGQGTQVTVSS | low polyreactivity
QEQLQESGGGLVQAGGSQSLSCAASGIIFDWFFMGWYRQAPGREREFVAAITYGATTNYADSVKGRFTISRDNGKITVYLQMNSLKPEDCAVYYCAAASPLYWVDDFESGWRYYYWGQGTQVTVSS | low polyreactivity
QEQLQESGSGLVQAGGSLRLSCAASGNIFQDWVMAWYRQAPGKERELVAAISPGAITYYADSVKGRFTISRDNAKNTVYLQTNSLKPEDTAVYYCAAYYIVEYLHGYWGQGTRVTVSS | low polyreactivity
QEQLQESGSGLVQAGGSLRLSCAASGNIFQDWVMGWYRKAPGQERELVAAISPGAITYYADSVKGRFTISRDNAKNSVYLQTKSLKPEDTAVYYCGAYYIVEYLHGYWGQGTRVTVSS | low polyreactivity
